97 substances from patent US20250011363A1, “OPTIMIZED SHORTENED PEPTIDE THAT BINDS TO ACETYLCHOLINE RECEPTOR, AND USE THEREOF” (SKINMED CO., LTD., priority 2021, published 2025) can be followed below.

This test has as its target acetylcholine receptor (Homo sapiens, UniProt P02708). Briefly: SPR binding affinity (RU) of optimized 5mer/6mer/7mer peptides, Examples 6-7. The note with it: SPR, Resonance Units; peptides tested at 10 μM; 6mer-2 Top sequence (Table 12). In outline:
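600 peptides per series (5mer, 6mer-1, 6mer-2), made from high- or low-frequency amino acid combinations, are screened by SPR at 10 μM; binding is recorded in RU.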

Sequence of acetylcholine receptor (P02708 21-457): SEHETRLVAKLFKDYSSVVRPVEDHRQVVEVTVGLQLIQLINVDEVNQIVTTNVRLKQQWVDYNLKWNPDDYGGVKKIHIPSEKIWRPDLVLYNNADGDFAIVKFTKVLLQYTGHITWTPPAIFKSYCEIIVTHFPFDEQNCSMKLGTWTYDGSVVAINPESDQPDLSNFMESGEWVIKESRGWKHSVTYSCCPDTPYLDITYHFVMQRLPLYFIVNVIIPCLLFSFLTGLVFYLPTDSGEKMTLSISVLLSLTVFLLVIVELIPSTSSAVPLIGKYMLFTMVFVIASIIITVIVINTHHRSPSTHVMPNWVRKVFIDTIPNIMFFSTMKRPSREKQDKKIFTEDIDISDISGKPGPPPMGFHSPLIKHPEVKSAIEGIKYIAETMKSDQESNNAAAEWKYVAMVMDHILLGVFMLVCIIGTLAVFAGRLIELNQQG

As for 6mer-2-239 (RGQYKK), the Binding affinity was 125 Ru.
Then 6mer-2-240 (RRRCRK), with 142 Ru.
On to 6mer-2-241 (KQLTKR), for which the Binding affinity was 135 Ru.
Then 6mer-2-242 (KSQRRR), with 135 Ru.
Consider 6mer-2-243 (KRVLKR), for which the Binding affinity was 148 Ru.
For the substance 6mer-2-244 (RRFSKR), the Binding affinity is reported as 139 Ru.
To 6mer-2-245 (RSLSKR) belongs 135 Ru; to 6mer-2-246 (KWISKK), 123 Ru.
For the substance 6mer-2-247 (KGYQKK), the Binding affinity worked out at 146 Ru.
Then 6mer-2-248 (RSYTRR), with 154 Ru.
Then 6mer-2-249 (RGLRKR), with 136 Ru; and 6mer-2-250 (KRRRKK), with 145 Ru; and 6mer-2-251 (KSQTKR), with 142 Ru.
Then 6mer-2-252 (KVFRKK), with 148 Ru.
In the case of 6mer-2-253 (KLRSRR), the Binding affinity was 145 Ru.
Take 6mer-2-254 (KRIQRR): the Binding affinity was found to be 148 Ru.
On to 6mer-2-255 (RLRRKK), for which the Binding affinity is listed as 139 Ru.
Then 6mer-2-256 (KSQQKR), with 142 Ru; and 6mer-2-257 (KRFCRK), with 144 Ru; and 6mer-2-258 (KRIYRR), with 125 Ru.
Turning to 6mer-2-259 (RVQSKR), the Binding affinity worked out at 128 Ru.
As for 6mer-2-260 (RRFCKR), the Binding affinity is 142 Ru.
Then 6mer-2-261 (RWYTKK), with 121 Ru; and 6mer-2-262 (KWILKR), with 142 Ru.
With 6mer-2-263 (RRICKR), the Binding affinity worked out at 145 Ru.
On to 6mer-2-264 (KSQLKR), for which the Binding affinity came to 127 Ru.
6mer-2-265 (RRQTRK): the Binding affinity was 135 Ru.
Take 6mer-2-266 (RWQTKK): the Binding affinity turned out to be 131 Ru.
To 6mer-2-267 (KLYSRR) belongs 141 Ru.
For the substance 6mer-2-268 (RQICKK), the Binding affinity is reported as 139 Ru.
Take 6mer-2-269 (KWVQRK): the Binding affinity was 123 Ru.
To 6mer-2-270 (KSRLRR) belongs 148 Ru; to 6mer-2-271 (RLFQKK), 131 Ru; to 6mer-2-272 (KWRSRK), 154 Ru.
To 6mer-2-273 (KLRQRR) belongs 131 Ru; to 6mer-2-274 (KLRTKR), 148 Ru.
Turning to 6mer-2-275 (KLITRR), the Binding affinity is recorded as 135 Ru.
With 6mer-2-276 (RLVCRK), the Binding affinity stood at 153 Ru.
Then 6mer-2-277 (RLRYRK), with 128 Ru.
To 6mer-2-278 (RQIQKK) belongs 135 Ru; to 6mer-2-279 (KSLQRK), 148 Ru; to 6mer-2-280 (KSIYRR), 153 Ru.
Then 6mer-2-281 (KGQRKK), with 149 Ru; and 6mer-2-282 (RQQYRK), with 151 Ru.
For the substance 6mer-2-283 (KLISKR), the Binding affinity is recorded as 148 Ru.
Regarding 6mer-2-284 (KLRSKR), the Binding affinity turned out to be 151 Ru.
As for 6mer-2-285 (RRIQRR), the Binding affinity was 142 Ru.
6mer-2-286 (KRRYKK): the Binding affinity is on record as 139 Ru.
Then 6mer-2-287 (RLYLKR), with 124 Ru; and 6mer-2-288 (KSRLRK), with 122 Ru.
For the substance 6mer-2-289 (RLLQKK), the Binding affinity worked out at 146 Ru.
To 6mer-2-290 (RQLYRK) belongs 135 Ru.
To 6mer-2-291 (RRYRKR) belongs 154 Ru.
6mer-2-292 (RQLCKR): the Binding affinity came to 121 Ru.
6mer-2-293 (KQQSKR): the Binding affinity stood at 153 Ru.
As to 6mer-2-294 (KLYYRR), the Binding affinity is recorded as 135 Ru.
To 6mer-2-295 (KVRYKK) belongs 145 Ru.
Regarding 6mer-2-296 (KWYRRK), the Binding affinity was determined as 135 Ru.
As for 6mer-2-297 (RSLSRR), the Binding affinity worked out at 139 Ru.
Regarding 6mer-2-298 (KWICKK), the Binding affinity is 149 Ru.
Then 6mer-2-299 (RWYYRK), with 141 Ru.
For the substance 6mer-2-300 (RWRLKK), the Binding affinity worked out at 153 Ru.
As for 6mer-2-301 (RQVRKR), the Binding affinity was found to be 122 Ru.
To 6mer-2-302 (KQICKK) belongs 148 Ru; to 6mer-2-303 (KVFTKR), 126 Ru; to 6mer-2-304 (KWFYRK), 144 Ru.
In the case of 6mer-2-305 (KQFYKK), the Binding affinity is 154 Ru.
Regarding 6mer-2-306 (RQFQKR), the Binding affinity is recorded as 141 Ru.
With 6mer-2-307 (RLRSKK), the Binding affinity was 141 Ru.
Then 6mer-2-308 (KGISKR), with 148 Ru.
To 6mer-2-309 (KRRRRR) belongs 151 Ru; to 6mer-2-310 (KLFQRK), 149 Ru.
In the case of 6mer-2-311 (KVVTRK), the Binding affinity is 147 Ru.
In the case of 6mer-2-312 (KWRTKR), the Binding affinity worked out at 121 Ru.
6mer-2-313 (RWRTKR): the Binding affinity turned out to be 154 Ru.
To 6mer-2-314 (KQYCKK) belongs 127 Ru.
In the case of 6mer-2-315 (RRQRRR), the Binding affinity came out at 139 Ru.
As to 6mer-2-316 (KGIRRR), the Binding affinity is recorded as 139 Ru.
To 6mer-2-317 (RGLYKR) belongs 135 Ru; to 6mer-2-318 (RGIQKK), 145 Ru.
Then 6mer-2-319 (RSRQRK), with 137 Ru; and 6mer-2-320 (RQYRRK), with 148 Ru; and 6mer-2-321 (KLVSRK), with 139 Ru.
To 6mer-2-322 (RRYSRR) belongs 148 Ru; to 6mer-2-323 (KVLLRK), 145 Ru.
In the case of 6mer-2-324 (KLQSRK), the Binding affinity was found to be 139 Ru.
With 6mer-2-325 (RVFSRK), the Binding affinity came out at 142 Ru.
Regarding 6mer-2-326 (RGFYKK), the Binding affinity worked out at 142 Ru.
Take 6mer-2-327 (KGLRKR): the Binding affinity was 153 Ru.
Turning to 6mer-2-328 (KRYQRK), the Binding affinity is recorded as 131 Ru.
In the case of 6mer-2-329 (RVYTKR), the Binding affinity is listed as 142 Ru.
6mer-2-330 (KQLRKK): the Binding affinity came to 139 Ru.
For the substance 6mer-2-331 (RWVSKK), the Binding affinity was found to be 148 Ru.
Then 6mer-2-332 (RRQYKK), with 145 Ru; and 6mer-2-333 (KRFRRK), with 139 Ru; and 6mer-2-334 (KVILRR), with 146 Ru.
Then 6mer-2-335 (KWRSRR), with 153 Ru.
